{
  "source": "paper PMC12726990",
  "about": "“Sialylated Clusterin Binds CD33 to Regulate Microglial Functions in Alzheimer's Disease” (Alzheimer's & Dementia, 2025)",
  "binders": {"B1": {"name": "sialic-acid binding immunoglobulin-like lectin 3 receptor (Siglec-3 / CD33) (receptor)", "chain": "DPNFWLQVQESVTVQEGLCVLVPCTFFHPIPYYDKNSPVHGYWFREGAIISRDSPVATNKLDQEVQEETQGRFRLLGDPSRNNCSLSIVDARRRDNGSYFFRMERGSTKYSYKSPQLSVHVTDLTHRPKILIPGTLEPGHSKNLTCSVSWACEQGTPPIFSWLSAAPTSLGPRTTHSSVLIITPRPQDHGTNLTCQVKFAGAGVTTERTIQLNVTYVPQNPTTGIFPGDGSGKQETRAGVVH"}},
  "target": "T1, Sialylated clusterin (CLU) (UniProt P10909 23-449, sialylated)",
  "T1 construct": "Clusterin (CLU), soluble sialylated protein",
  "T1 sequence (P10909 23-449)": "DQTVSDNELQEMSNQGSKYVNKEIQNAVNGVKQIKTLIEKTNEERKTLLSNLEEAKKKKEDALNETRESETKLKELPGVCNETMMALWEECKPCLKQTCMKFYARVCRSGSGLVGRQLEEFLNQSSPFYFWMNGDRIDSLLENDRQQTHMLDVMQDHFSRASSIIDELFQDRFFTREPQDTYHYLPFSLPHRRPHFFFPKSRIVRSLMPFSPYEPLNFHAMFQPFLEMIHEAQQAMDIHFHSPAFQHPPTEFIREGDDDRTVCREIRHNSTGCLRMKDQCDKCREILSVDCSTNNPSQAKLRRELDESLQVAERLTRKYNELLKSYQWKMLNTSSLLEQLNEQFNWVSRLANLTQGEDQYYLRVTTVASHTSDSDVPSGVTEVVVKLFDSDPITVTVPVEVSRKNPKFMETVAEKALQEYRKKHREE",
  "experiment": "BLI + MST; quantitative binding assay; which of the two methods gave the value, and who was immobilised or labelled, is not told",
  "details": "both partners purified",
  "data": [
    {"binder": "B1", "values": [
      {"measurement": "Kd", "value": "28.9 ± 10.3", "unit": "nM"}
    ]}
  ]
}
